Experimental findings from the supplement of paper PMC9112550, “Optimization of the antimicrobial peptide Bac7 by deep mutational scanning” (BMC Biology, 2022) are described below.

This data set deals with Escherichia coli TOP10. As to the kind of experiment: shrunken log2 fold change of peptide-encoding DNA abundance (4.5 h post-induction vs induction); higher = less antimicrobial activity (less host growth inhibition). The settings on record: time post-induction: 4.5 h; library: site-saturation at positions 5, 18, 19, 20.
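Also: peptides expressed intracellularly from a pBAD plasmid library in pooled LB shake-flask culture, induced with 0.3% L-arabinose, DNA abundance read by NGS, three biological replicates, DESeq2 with apeglm shrinkage.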

In the case of RRIRTRPPRLPRPRPRPTEHPRP, the “shrunken log2 fold change” value was -0.106.

Turning to RRIRNRPPRLPRPRPRPPFGPRP, the “shrunken log2 fold change” value is 0.291.

In the case of RRIRERPPRLPRPRPRPNRNPRP, the “shrunken log2 fold change” value is -1.09.

For the sequence RRIRVRPPRLPRPRPRPCSFPRP, the “shrunken log2 fold change” value was determined as 0.0114.

Turning to RRIRNRPPRLPRPRPRPCNVPRP, the “shrunken log2 fold change” value is -0.00963.

Consider RRIRERPPRLPRPRPRPPRAPRP, for which the “shrunken log2 fold change” value was 0.453.

Take RRIRLRPPRLPRPRPRPYAPPRP: the “shrunken log2 fold change” value was -0.329.

As to RRIRWRPPRLPRPRPRPGWFPRP, the “shrunken log2 fold change” value is 0.249.

In the case of RRIRIRPPRLPRPRPRPNHNPRP, the “shrunken log2 fold change” value was -0.518.

On to RRIRQRPPRLPRPRPRPLNWPRP, for which the “shrunken log2 fold change” value is -0.133.

In the case of RRIRQRPPRLPRPRPRPFWHPRP, the “shrunken log2 fold change” value is -0.469.

Turning to RRIRERPPRLPRPRPRPILLPRP, the “shrunken log2 fold change” value was -0.336.

In the case of RRIRTRPPRLPRPRPRPAGPPRP, the “shrunken log2 fold change” value is -0.257.

For RRIRIRPPRLPRPRPRPWDEPRP, the “shrunken log2 fold change” value was -0.156.

Regarding RRIRFRPPRLPRPRPRPPLNPRP, the “shrunken log2 fold change” value came out at 0.0971.

RRIRLRPPRLPRPRPRPQMYPRP: the “shrunken log2 fold change” value is -0.115.

With RRIRQRPPRLPRPRPRPTRVPRP, the “shrunken log2 fold change” value came to 0.305.

With RRIRLRPPRLPRPRPRPTNEPRP, the “shrunken log2 fold change” value is -0.127.

As to RRIRKRPPRLPRPRPRPQCIPRP, the “shrunken log2 fold change” value is -0.149.

Consider RRIRRRPPRLPRPRPRPTETPRP, for which the “shrunken log2 fold change” value came out at 0.137.

For the sequence RRIRTRPPRLPRPRPRPNILPRP, the “shrunken log2 fold change” value was -0.484.

On to RRIRCRPPRLPRPRPRPNVHPRP, for which the “shrunken log2 fold change” value is -0.532.

Turning to RRIRWRPPRLPRPRPRPPHNPRP, the “shrunken log2 fold change” value was found to be 0.527.

Take RRIRLRPPRLPRPRPRPSKAPRP: the “shrunken log2 fold change” value is -0.0252.

Turning to RRIRRRPPRLPRPRPRPNNNPRP, the “shrunken log2 fold change” value is -0.426.

For the sequence RRIRARPPRLPRPRPRPVKNPRP, the “shrunken log2 fold change” value is 0.384.

In the case of RRIRQRPPRLPRPRPRPVQTPRP, the “shrunken log2 fold change” value was -0.0915.

With RRIRMRPPRLPRPRPRPDFGPRP, the “shrunken log2 fold change” value came to 0.0563.

As for RRIRPRPPRLPRPRPRPNYNPRP, the “shrunken log2 fold change” value was -0.676.

With RRIRPRPPRLPRPRPRPFECPRP, the “shrunken log2 fold change” value was -0.242.

Turning to RRIRWRPPRLPRPRPRPCFFPRP, the “shrunken log2 fold change” value was determined as 0.0878.

Take RRIRFRPPRLPRPRPRPPVWPRP: the “shrunken log2 fold change” value was determined as 0.622.

As for RRIRFRPPRLPRPRPRPGLFPRP, the “shrunken log2 fold change” value is -0.143.

Take RRIRNRPPRLPRPRPRPCFKPRP: the “shrunken log2 fold change” value is -0.0138.

Regarding RRIRIRPPRLPRPRPRPHYIPRP, the “shrunken log2 fold change” value was -0.155.

Turning to RRIRIRPPRLPRPRPRPQGHPRP, the “shrunken log2 fold change” value is -0.0464.

Regarding RRIRDRPPRLPRPRPRPNMGPRP, the “shrunken log2 fold change” value was 0.102.

With RRIRARPPRLPRPRPRPEAIPRP, the “shrunken log2 fold change” value was 0.839.

In the case of RRIRLRPPRLPRPRPRPPSYPRP, the “shrunken log2 fold change” value worked out at 0.119.

In the case of RRIRKRPPRLPRPRPRPDHLPRP, the “shrunken log2 fold change” value is -0.0896.

Consider RRIRRRPPRLPRPRPRPDTMPRP, for which the “shrunken log2 fold change” value came out at 0.0801.

Take RRIRDRPPRLPRPRPRPWNEPRP: the “shrunken log2 fold change” value is -0.195.

For the sequence RRIRFRPPRLPRPRPRPIPPPRP, the “shrunken log2 fold change” value came to 1.09.

Consider RRIRYRPPRLPRPRPRPIVQPRP, for which the “shrunken log2 fold change” value is -0.121.

For the sequence RRIRARPPRLPRPRPRPKFLPRP, the “shrunken log2 fold change” value was 0.288.

For RRIRGRPPRLPRPRPRPGKQPRP, the “shrunken log2 fold change” value amounted to 0.0206.

Regarding RRIRWRPPRLPRPRPRPLYVPRP, the “shrunken log2 fold change” value was -0.836.

For RRIRHRPPRLPRPRPRPCGNPRP, the “shrunken log2 fold change” value is -0.196.

In the case of RRIRIRPPRLPRPRPRPSVGPRP, the “shrunken log2 fold change” value was -0.261.

Consider RRIRFRPPRLPRPRPRPNWCPRP, for which the “shrunken log2 fold change” value is -0.107.

As for RRIRCRPPRLPRPRPRPGGAPRP, the “shrunken log2 fold change” value worked out at 0.462.

RRIRSRPPRLPRPRPRPQRCPRP: the “shrunken log2 fold change” value was -0.0342.

Turning to RRIRWRPPRLPRPRPRPMKCPRP, the “shrunken log2 fold change” value is -0.0018.

Regarding RRIRFRPPRLPRPRPRPPDDPRP, the “shrunken log2 fold change” value was determined as 0.371.

For RRIRHRPPRLPRPRPRPKTIPRP, the “shrunken log2 fold change” value is -0.486.

For the sequence RRIRWRPPRLPRPRPRPAPTPRP, the “shrunken log2 fold change” value is 0.695.

Consider RRIRHRPPRLPRPRPRPSYHPRP, for which the “shrunken log2 fold change” value is -1.11.

As for RRIRMRPPRLPRPRPRPKIHPRP, the “shrunken log2 fold change” value was -0.0387.

As to RRIRCRPPRLPRPRPRPSLIPRP, the “shrunken log2 fold change” value is -0.286.

Take RRIRCRPPRLPRPRPRPDQDPRP: the “shrunken log2 fold change” value came to 0.0433.

With RRIRYRPPRLPRPRPRPVDRPRP, the “shrunken log2 fold change” value is -0.126.

Regarding RRIRNRPPRLPRPRPRPYPSPRP, the “shrunken log2 fold change” value turned out to be 0.0309.

RRIRFRPPRLPRPRPRPSRCPRP: the “shrunken log2 fold change” value is -0.0633.

Regarding RRIRQRPPRLPRPRPRPLYLPRP, the “shrunken log2 fold change” value is -0.511.

On to RRIRNRPPRLPRPRPRPAIVPRP, for which the “shrunken log2 fold change” value is -0.0426.

For the sequence RRIRQRPPRLPRPRPRPMNTPRP, the “shrunken log2 fold change” value was determined as 0.0106.

With RRIRDRPPRLPRPRPRPSHAPRP, the “shrunken log2 fold change” value amounted to 0.0738.

As for RRIRPRPPRLPRPRPRPPEIPRP, the “shrunken log2 fold change” value was -0.0297.

Regarding RRIRPRPPRLPRPRPRPAGTPRP, the “shrunken log2 fold change” value was -0.07.

In the case of RRIRLRPPRLPRPRPRPILRPRP, the “shrunken log2 fold change” value was -0.156.

Turning to RRIRVRPPRLPRPRPRPGEGPRP, the “shrunken log2 fold change” value worked out at 0.62.

Regarding RRIRDRPPRLPRPRPRPGFNPRP, the “shrunken log2 fold change” value amounted to 0.125.

For the sequence RRIRDRPPRLPRPRPRPGFKPRP, the “shrunken log2 fold change” value was determined as 0.0624.

For the sequence RRIRARPPRLPRPRPRPQVDPRP, the “shrunken log2 fold change” value came out at 0.04.

On to RRIRNRPPRLPRPRPRPFKSPRP, for which the “shrunken log2 fold change” value was -0.014.

In the case of RRIRARPPRLPRPRPRPLCLPRP, the “shrunken log2 fold change” value worked out at 0.132.

RRIRMRPPRLPRPRPRPFHYPRP: the “shrunken log2 fold change” value is -0.63.

With RRIRSRPPRLPRPRPRPHKGPRP, the “shrunken log2 fold change” value is -0.22.

Regarding RRIRSRPPRLPRPRPRPPSQPRP, the “shrunken log2 fold change” value is 0.235.

RRIRWRPPRLPRPRPRPERAPRP: the “shrunken log2 fold change” value was 0.707.

In the case of RRIRDRPPRLPRPRPRPPPKPRP, the “shrunken log2 fold change” value is 1.09.

As to RRIRARPPRLPRPRPRPGVHPRP, the “shrunken log2 fold change” value came out at 0.243.

RRIRQRPPRLPRPRPRPFMAPRP: the “shrunken log2 fold change” value is -0.61.

As to RRIRTRPPRLPRPRPRPQFAPRP, the “shrunken log2 fold change” value turned out to be 0.0816.

For the sequence RRIRGRPPRLPRPRPRPWSLPRP, the “shrunken log2 fold change” value was found to be 0.094.

With RRIRDRPPRLPRPRPRPCMGPRP, the “shrunken log2 fold change” value is -0.0733.

Consider RRIRTRPPRLPRPRPRPNNDPRP, for which the “shrunken log2 fold change” value is -0.797.

For RRIRDRPPRLPRPRPRPNVFPRP, the “shrunken log2 fold change” value was -0.268.

Take RRIRARPPRLPRPRPRPWMYPRP: the “shrunken log2 fold change” value was -0.794.

Regarding RRIRTRPPRLPRPRPRPNSYPRP, the “shrunken log2 fold change” value is -0.188.

With RRIRFRPPRLPRPRPRPSFFPRP, the “shrunken log2 fold change” value was -0.0473.

Turning to RRIRLRPPRLPRPRPRPWLVPRP, the “shrunken log2 fold change” value was -0.0391.

Turning to RRIRLRPPRLPRPRPRPWFEPRP, the “shrunken log2 fold change” value is -0.218.

On to RRIRPRPPRLPRPRPRPIWFPRP, for which the “shrunken log2 fold change” value was -0.0151.

Consider RRIRYRPPRLPRPRPRPGAGPRP, for which the “shrunken log2 fold change” value was 0.0814.

For the sequence RRIRKRPPRLPRPRPRPQWKPRP, the “shrunken log2 fold change” value came to 0.17.

RRIRGRPPRLPRPRPRPTFNPRP: the “shrunken log2 fold change” value worked out at 0.31.

Turning to RRIRDRPPRLPRPRPRPWGAPRP, the “shrunken log2 fold change” value is 0.305.

Regarding RRIRFRPPRLPRPRPRPPFRPRP, the “shrunken log2 fold change” value is 1.84.

Take RRIRHRPPRLPRPRPRPKYRPRP: the “shrunken log2 fold change” value was -0.138.

As for RRIRRRPPRLPRPRPRPALPPRP, the “shrunken log2 fold change” value was found to be 0.48.

With RRIRQRPPRLPRPRPRPGKPPRP, the “shrunken log2 fold change” value was found to be 0.12.

For the sequence RRIRFRPPRLPRPRPRPTGRPRP, the “shrunken log2 fold change” value worked out at 0.131.

On to RRIRHRPPRLPRPRPRPDYKPRP, for which the “shrunken log2 fold change” value is 0.00107.

RRIRCRPPRLPRPRPRPYRRPRP: the “shrunken log2 fold change” value was -0.344.

With RRIRSRPPRLPRPRPRPIFKPRP, the “shrunken log2 fold change” value was -0.186.

With RRIRYRPPRLPRPRPRPLQSPRP, the “shrunken log2 fold change” value was 0.00494.

RRIRQRPPRLPRPRPRPIKLPRP: the “shrunken log2 fold change” value was -0.0569.

On to RRIRSRPPRLPRPRPRPMFEPRP, for which the “shrunken log2 fold change” value is -0.0573.

On to RRIRDRPPRLPRPRPRPPESPRP, for which the “shrunken log2 fold change” value stood at 0.822.

In the case of RRIRSRPPRLPRPRPRPHTWPRP, the “shrunken log2 fold change” value is -0.0472.

Take RRIRYRPPRLPRPRPRPMSVPRP: the “shrunken log2 fold change” value is -0.0288.

For the sequence RRIRHRPPRLPRPRPRPLPRPRP, the “shrunken log2 fold change” value came to 0.176.

For the sequence RRIRERPPRLPRPRPRPSTFPRP, the “shrunken log2 fold change” value was 2.07.

For RRIRRRPPRLPRPRPRPANKPRP, the “shrunken log2 fold change” value came out at 0.0263.

Consider RRIRLRPPRLPRPRPRPTPGPRP, for which the “shrunken log2 fold change” value came out at 0.557.

For the sequence RRIRNRPPRLPRPRPRPQMMPRP, the “shrunken log2 fold change” value is -0.227.

Turning to RRIRKRPPRLPRPRPRPFSSPRP, the “shrunken log2 fold change” value was -0.219.

Consider RRIRHRPPRLPRPRPRPHWPPRP, for which the “shrunken log2 fold change” value was -0.25.

RRIRHRPPRLPRPRPRPCEFPRP: the “shrunken log2 fold change” value is -0.324.

Consider RRIRLRPPRLPRPRPRPCSTPRP, for which the “shrunken log2 fold change” value is -0.0337.

As to RRIRRRPPRLPRPRPRPCRPPRP, the “shrunken log2 fold change” value is 0.0965.

As for RRIRKRPPRLPRPRPRPDCNPRP, the “shrunken log2 fold change” value is -0.00139.

As for RRIRTRPPRLPRPRPRPLMQPRP, the “shrunken log2 fold change” value was 0.19.

With RRIRDRPPRLPRPRPRPGSGPRP, the “shrunken log2 fold change” value was 0.499.
